Patent publication US20230192854A1 (SHANGHAI JUNSHI BIOSCIENCES, published 2023)
Numbering of substitutions follows the chain as printed. Blank lines part the entries; values can stand above or below the binder they belong to.

Tests used:
hBTLA expressed on cells = hBTLA expressed on cells (human, UniProt Q7Z6A9 31-289); assay: cell-based or functional assay
murine BTLA = biological target: T1, murine BTLA (murine, UniProt Q7TSA3 30-183, limits assumed); assay: OD 450 nm against log ng/mL of antibody (ELISA-type readout as drawn; Example 11 describes a Fortebio/SPR chip assay with BTLA coupled to the chip)
T1 sequence (looked up): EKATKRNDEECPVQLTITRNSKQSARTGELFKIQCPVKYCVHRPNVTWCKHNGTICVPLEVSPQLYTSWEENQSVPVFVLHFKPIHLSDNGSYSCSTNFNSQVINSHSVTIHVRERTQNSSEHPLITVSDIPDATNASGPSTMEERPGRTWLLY

human C1q = biological target: T2, human C1q (human, UniProt P02745 23-245; P02746 28-253; P02747 29-245); assay: C1q binding assay, method not described (Table 18: 'Non-specific binding')
T2 construct: also called C1q protein

recombinant human FcRn = biological target: T3, recombinant human FcRn (human, UniProt P55899 24-297; P61769 21-119); assay: SPR, Biacore T200; Fc receptor captured on anti-His antibody, antibody injected
T3 construct: Captured on an anti-His antibody
From the text: (§1) ADCC is initiated when an antibody binds to a cell surface target protein and then links to an Fc γ receptor (FcγR) expressed on effector cells. […] In conjunction with ADCC, CDC is activated when antibodies cross-link the cell surface target and C1q protein, followed by a cascade reaction of complement complex formation and target cell lysis. As a proxy for ADCC and CDC, the detection of antibody binding to FcγR and C1q may serve as basic indicators of ADCC and CDC. Thus, in the present invention, the kinetic binding affinity of monoclonal antibodies for major FcγRs was evaluated using biacore T200 (GE).
(§2) Anti-His antibody (GE) was immobilized on the sensor wafer. Various Fc receptors, including recombinant human FcγRIIIA (CD16a) V176, recombinant human FcγRIIA (CD32a) R167, recombinant human FcγRI (CD64) and recombinant human FcRn were captured, then a series of diluted recombinant human anti-BTLA antibodies (i.e., hu18) were injected, and the binding properties of the interactions were assayed and analyzed. hu18 is an IgG4 subtype, and hu18-IgG1 is an IgG1 subtype that shares the same Fab as hu18 and serves as a positive control.

[1] = biological target: recombinant human FcγRIIIA (CD16a) V176 (human, UniProt P08637 17-208); assay: as above
From the text: as §1, §2

[2] = biological target: recombinant human FcγRI (CD64) (human, UniProt P12314 16-288); assay: as above
From the text: as §1, §2

[3] = biological target: T4, recombinant human FcγRIIA (CD32a) R167 (human, UniProt P12318 36-218); assay: as above
T4 sequence (looked up): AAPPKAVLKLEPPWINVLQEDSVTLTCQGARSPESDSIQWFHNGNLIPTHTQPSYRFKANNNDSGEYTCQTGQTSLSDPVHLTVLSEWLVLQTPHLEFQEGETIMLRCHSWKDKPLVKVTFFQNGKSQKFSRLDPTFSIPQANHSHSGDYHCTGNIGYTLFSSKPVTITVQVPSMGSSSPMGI
From the text: as §1, §2

Chain of recombinant human FcγRI (CD64) (P12314 16-288 limits assumed): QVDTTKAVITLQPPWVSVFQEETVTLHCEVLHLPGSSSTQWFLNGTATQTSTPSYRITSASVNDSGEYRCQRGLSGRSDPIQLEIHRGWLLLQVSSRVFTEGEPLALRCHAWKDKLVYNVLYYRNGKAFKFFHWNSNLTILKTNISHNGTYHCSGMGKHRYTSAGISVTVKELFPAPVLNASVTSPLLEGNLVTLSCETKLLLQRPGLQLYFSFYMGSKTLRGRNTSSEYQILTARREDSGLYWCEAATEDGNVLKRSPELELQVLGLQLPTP
Chain of recombinant human FcγRIIIA (CD16a) V176 (P08637 17-208 F176V): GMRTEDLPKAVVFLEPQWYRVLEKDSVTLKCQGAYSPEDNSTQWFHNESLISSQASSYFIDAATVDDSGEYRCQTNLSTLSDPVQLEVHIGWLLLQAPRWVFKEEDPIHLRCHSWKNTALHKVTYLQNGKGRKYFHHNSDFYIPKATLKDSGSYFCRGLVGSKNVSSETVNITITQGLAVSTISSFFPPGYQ
T2 sequence (P02745 23-245 limits assumed, chain 1 of 3): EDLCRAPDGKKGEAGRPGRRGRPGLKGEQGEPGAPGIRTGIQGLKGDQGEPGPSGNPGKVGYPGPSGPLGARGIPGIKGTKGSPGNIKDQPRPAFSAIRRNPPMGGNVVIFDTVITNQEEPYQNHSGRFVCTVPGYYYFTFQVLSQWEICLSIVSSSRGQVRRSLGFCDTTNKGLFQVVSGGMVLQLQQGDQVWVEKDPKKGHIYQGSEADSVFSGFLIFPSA
T2 sequence (P02746 28-253 limits assumed, chain 2 of 3): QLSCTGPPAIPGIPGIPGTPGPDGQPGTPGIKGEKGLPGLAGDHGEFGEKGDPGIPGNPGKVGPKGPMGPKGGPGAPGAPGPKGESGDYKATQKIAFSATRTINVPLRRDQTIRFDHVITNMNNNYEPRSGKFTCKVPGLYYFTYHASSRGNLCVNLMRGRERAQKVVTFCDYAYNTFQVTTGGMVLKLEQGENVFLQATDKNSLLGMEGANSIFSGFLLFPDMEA
T2 sequence (P02747 29-245 limits assumed, chain 3 of 3): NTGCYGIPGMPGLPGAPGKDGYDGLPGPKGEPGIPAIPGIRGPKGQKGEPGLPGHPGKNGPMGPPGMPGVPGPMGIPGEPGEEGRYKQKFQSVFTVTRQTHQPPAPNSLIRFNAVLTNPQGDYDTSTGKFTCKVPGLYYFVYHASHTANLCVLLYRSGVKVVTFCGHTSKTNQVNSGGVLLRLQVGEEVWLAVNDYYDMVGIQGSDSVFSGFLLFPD

EC50 (ng/mL); NFAT-luciferase luminescence of Jurkat hPD-1/hBTLA report cells co-cultured with CHO cells expressing hPD-L1/hHVEM (hBTLA expressed on cells): 257 ng/mL
binding result (murine BTLA): no binding (tested: 1000 ng/mL (log 3))
B1: humanized anti-BTLA antibody hu17 (antibody, V domains shown)
VH: QVQLVQSGAEVKKPGASVKLSCKASGYNFKHTYAHWVRQAPGQGLEWIGRIDPANGNTKYDPKFQGRATMTADTASNTAYLELSSLRSEDTAVYYCVADHYGSSLLDYWGQGTLVTVSS
VL: DIVMTQTPLSLSVTPGQPASISCKSSQSLLDSDGKTYLNWFQQRPGQSPRRLIYLVSKLDSGVPDRFSGSGSGTDFTLKISRVEAEDVGVYYCWQGTYFPYTFGQGTKLEIK
notes: Called a full humanized antibody; also called hul7; hull

EC50 (ng/mL); NFAT-luciferase luminescence of Jurkat hPD-1/hBTLA report cells co-cultured with CHO cells expressing hPD-L1/hHVEM (hBTLA expressed on cells): 290 ng/mL
B2: humanized anti-BTLA antibody hu19 (antibody, V domains shown)
VH: B1 VH
VL: B1 VL with I53M, Y54H

EC50 (ng/mL); NFAT-luciferase luminescence of Jurkat hPD-1/hBTLA report cells co-cultured with CHO cells expressing hPD-L1/hHVEM (hBTLA expressed on cells): 277 ng/mL
binding result (human C1q): no binding
Kd (recombinant human FcRn): 0.138 µM
koff (recombinant human FcRn): 0.0708 s⁻¹
kon (recombinant human FcRn): 512000 M⁻¹ s⁻¹
Kd [1]: 60.2 µM
fold weaker interaction than the control antibody of the IgG1 subtype (hu18-IgG1) [1]: 400 fold
Kd [2]: 0.0184 µM
koff [2]: 0.00387 s⁻¹
kon [2]: 210000 M⁻¹ s⁻¹
Kd [3]: 40.6 µM
B3: recombinant humanized anti-BTLA monoclonal antibody hu18 (antibody, human IgG4 S228P, kappa)
heavy: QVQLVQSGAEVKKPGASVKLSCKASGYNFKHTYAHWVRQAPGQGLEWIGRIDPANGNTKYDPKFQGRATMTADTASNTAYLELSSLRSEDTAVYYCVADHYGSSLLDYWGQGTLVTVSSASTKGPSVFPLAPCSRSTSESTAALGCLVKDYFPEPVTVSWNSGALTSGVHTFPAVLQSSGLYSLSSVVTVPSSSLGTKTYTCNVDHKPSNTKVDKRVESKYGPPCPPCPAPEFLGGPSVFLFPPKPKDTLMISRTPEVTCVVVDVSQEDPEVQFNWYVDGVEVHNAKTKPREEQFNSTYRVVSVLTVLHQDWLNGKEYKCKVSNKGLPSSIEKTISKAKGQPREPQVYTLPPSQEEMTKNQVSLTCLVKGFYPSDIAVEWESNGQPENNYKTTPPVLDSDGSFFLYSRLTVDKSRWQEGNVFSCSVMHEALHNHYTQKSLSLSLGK
light: DVVMTQTPLSLSVTPGQPASISCKSSQSLLDSDGKTYLNWFQQRPGQSPRRLIYLVSKLDSGVPDRFSGSGSGTDFTLKISRVEAEDVGVYYCWQGTYFPYTFGQGTKLEIKRTVAAPSVFIFPPSDEQLKSGTASVVCLLNNFYPREAKVQWKVDNALQSGNSQESVTEQDSKDSTYSLSSTLTLSKADYEKHKVYACEVTHQGLSSPVTKSFNRGEC
notes: also called recombinant human anti-BTLA antibody of the IgG4 subtype
